{
  "source": "patent US11976099B2",
  "about": "“Compositions and methods for treatment of bone associated diseases” (THE NATIONAL INSTITUTE FOR BIOTECHNOLOGY IN THE NEGEV LTD., priority 2016, dated 2024)",
  "experiment": "BS^3 chemical cross linking / SDS-PAGE dimerization assay",
  "format": "physicochemical",
  "conditions": "for dimerization after BS^3 cross linking: Example 4, BS^3 up to 2500 μM, FIG. 8; for monomer/dimer bands after BS^3 cross linking: Example 11, BS^3 0-2500 μM, SDS-PAGE, FIG. 16A",
  "description": "Then, Tris was added to a final concentration of 30 mM and the mixture was incubated for 15 min at room temperature. Samples were denaturized and loaded on 15% SDS-PAGE. The gels were stained with coomassie blue (InstantBlue, Expedeon, CA, USA) and visualized with MiniBis pro (DNR Bio-Imaging Systems, Jerusalem, Israel).\nBS^3 crosslinking assay—Human (4 μg) and murine M-CSFWT (1 μg), M-CSFC31S (1 μg) and M-CSFC31S,M27R (2.5 μg) were incubated with different concentrations of BS^3 [bis(sulfosuccinimidyl)suberate] (ThermoFisher Scientific, MA, USA) cross linker (0, 25 μM, 100 μM, 250 μM, 500 μM, 1000 μM and 2500 μM) for 30 min at room temperature. Then, […] was added to a final concentration of 30 mM, and the mixture was incubated for 15 min at room temperature. Samples were denaturized with sample buffer, boiled, and loaded on 15% SDS-PAGE for protein separation. The gels were stained with InstantBlue staining (Expedeon, CA, USA) for 40 min, followed by two washing steps with double distilled water. The gels were visualized with MiniBis pro (DNR Bio-Imaging Systems, Jerusalem, Israel).\nExperiments were conducted in order to verify that the purified variants are incapable of dimerizing. The purified variants were incubated with a cross linker reagent (BS^3 [bis(sulfosuccinimidyl)suberate]) to enhance and visualize non-covalent intermolecular interactions. Following incubation, the reactions were stopped and the samples were loaded in denaturized conditions on a protein gel.\nTo validate the structural and computational analysis and to verify that M-CSFC31S,M27R is indeed a monomer, several biophysical assays were conducted. First, purified murine and human M-CSFWT, M-CSFC31S and M-CSFC31S,M27R were crosslinked via lysine residues using different amounts of BS^3 reagent [bis(sulfosuccinimidyl)suberate], and the proteins sizes were evaluated using SDS-PAGE (FIG. 16A). Murine M-CSFWT served as positive control, since it has a lysine in the dimerization site (K68), which facilitates the intermolecular cross-linking of the two monomers in the dimer. […] The dimer band became more prominent at higher BS^3 concentrations. It is likely that the non-covalent dimerization allows other lysines in M-CSFC31S to come into close proximity and crosslink.",
  "data": [
    {"molecule": "5.6: bispecific M-CSFRGD variant from sort five; M-CSFM loop replaced by XXXRGDXXX motif; binds c-FMS and αvβ3 integrin (protein, left off: small tags and cut ends) EEVSEYCSHMIGSGHLQSLQRLIDTYPRGDMCSITFEFVDQEQLKDPVCYLKKAFLLVQDIMEDTMRFRDNTPNAIAIVQLQELSLRLKSCFTKDYEEHDKACVRTFYETPLQLLEKVKNVFNETKNLLDKDWNIFSKNCNNSFAECSSQGHERQSEGS", "values": [
      {"measurement": "dimerization after BS^3 cross linking", "result": "did not show any dimerization"}
    ]},
    {"molecule": "M-CSFM: 158 amino acid M-CSF with cysteine at position 31 replaced by serine (SEQ ID NO: 2) (protein) EEVSEYCSHMIGSGHLQSLQRLIDSQMETSSQITFEFVDQEQLKDPVCYLKKAFLLVQDIMEDTMRFRDNTPNAIAIVQLQELSLRLKSCFTKDYEEHDKACVRTFYETPLQLLEKVKNVFNETKNLLDKDWNIFSKNCNNSFAECSSQGHERQSEGS", "values": [
      {"measurement": "dimerization after BS^3 cross linking", "result": "some dimerization interactions"},
      {"measurement": "monomer/dimer bands after BS^3 cross linking", "result": "mixture of monomer and dimer bands"}
    ]},
    {"molecule": "M-CSFWT: wild-type human M-CSF, disulfide-bond-linked homodimer which binds and activates c-FMS (protein) EEVSEYCSHMIGSGHLQSLQRLIDSQMETSCQITFEFVDQEQLKDPVCYLKKAFLLVQDIMEDTMRFRDNTPNAIAIVQLQELSLRLKSCFTKDYEEHDKACVRTFYETPLQLLEKVKNVFNETKNLLDKDWNIFSKNCNNSFAECSSQGHERQSEGS", "values": [
      {"measurement": "monomer/dimer bands after BS^3 cross linking", "result": "only a faint band in a size that corresponds to a dimer"}
    ]},
    {"molecule": "M-CSFC31S,M27R: M-CSF double mutant containing both C31S and M27R; monomeric, monospecific c-FMS antagonist (protein) EEVSEYCSHMIGSGHLQSLQRLIDSQRETSSQITFEFVDQEQLKDPVCYLKKAFLLVQDIMEDTMRFRDNTPNAIAIVQLQELSLRLKSCFTKDYEEHDKACVRTFYETPLQLLEKVKNVFNETKNLLDKDWNIFSKNCNNSFAECSSQGHERQSEGS", "values": [
      {"measurement": "monomer/dimer bands after BS^3 cross linking", "result": "did not produce any band corresponding to a dimer"}
    ]}
  ]
}
